Experimental data published in patent US11278600B2, “Human alpha-galactosidase variants” (Codexis, Inc., priority 2014, dated 2022).

Experiments:
Type in all cases: biochemical
[1] = HTP-analysis of supernatants pretreated with acid (MUGal hydrolysis); conditions: activity of the variant/activity of Rd4BB (SEQ ID NO: 15); challenge at pH 3.7
Procedure, shortened: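 MUGal hydrolysis was tracked by fluorescence (Ex 355 nm, Em 448 nm) after a 30-180 min reaction at 37° C. in pH 4.8 McIlvaine/citrate buffer, stopped with 1 M sodium carbonate. Beforehand, yeast (INVSc1) culture supernatants carrying GLA variants were held 1-3 h at 37° C. in acidic McIlvaine buffer, pH 3.3-4.3.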

[2] = HTP-analysis of yeast culture supernatants, no challenge (MUGal hydrolysis); conditions: activity of the variant/activity of Rd4BB (SEQ ID NO: 15)
Procedure, shortened: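 GLA variants were expressed in INVSc1 yeast grown in SD-Ura broth with glucose at 30° C., and culture supernatants were collected after 66-84 h. Supernatant was mixed with McIlvaine buffer pH 4.8 and MUGal (2 mM stock) in 50 mM citrate, 200 mM KCl, pH 4.6, incubated at 37° C. for 30-180 minutes, then quenched with sodium carbonate.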

[3] = HTP-analysis of supernatants pretreated with base (MUGal hydrolysis); conditions: activity of the variant/activity of Rd4BB (SEQ ID NO: 15); challenge at pH 9.65
Procedure, shortened: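 GLA variants were secreted by transformed INVSc1 yeast grown 66-84 h at 30° C. Supernatants were exposed to neutral-to-basic buffers (pH 7.0-9.7) at 37° C for 1-18 h, then assayed with MUGal in acidic citrate/McIlvaine buffer, with fluorescence read after quenching.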

| Molecule | Relative Activity of GLA Variants After Challenge at pH 3.7 [1] | Relative Activity of GLA Variants After No Challenge (NC) [2] | Relative Activity of GLA Variants After Challenge at pH 9.65 [3] |
| --- | --- | --- | --- |
| 504 (protein, Synthetic Polypeptide sequence of Variant No. 504 of mature Human GLA) LDNGLARTPTMGWLHWERFMCNLDCQEEPDSCISEKLFMEMAERMVSEGWKDAGYEYLCIDDCWMAPQRDSEGRLQADPQRFPHGIRQLANYVHSKGLKLGIYADVGNKTCAGFPGSFGYYDIDAQTFADWGVDLLKFDGCYCDSLENLADGYKHMSLALNRTGRSIVYSCEWPLYMWPFQKPNYTEIRQYCNHWRNFADIDDSWKSIKSILDWTSFNQERIVDVAGPGGWNDPDMLVIGNFGLSWNQQVTQMALWAIMAAPLFMSNDLRHISPQAKALLQDKDVIAINQDPLGKQGYQLRQGDNFEVWERPLSGLAWAVAMINRQEIGGPRSYTIAVASLGKGVACNPACFITQLLPVKRKLGFYEWTSRLRSHINPTGTVLLQLENTSQMSLKDLL | + (0.5 to 1.5 relative activity over Rd4BB (SEQ ID NO: 15)) | + (0.5 to 1.5 relative activity over Rd4BB (SEQ ID NO: 15)) | + (0.5 to 1.5 relative activity over Rd4BB (SEQ ID NO: 15)) |
| 505 (protein, Synthetic Polypeptide sequence of Variant No. 505 of mature Human GLA) LDNGLARTPTMGWLHWERFMCNLDCQEEPDSCISEKLFMEMAERMVSEGWKDAGYEYLCIDDCWMAPQRDSEGRLQADPQRFPHGIRQLANYVHSKGLKLGIYADVGNKTCAGFPGSFGYYDIDAQTFADWGVDLLKFDGCYCDSLENLADGYKHMSLALNRTGRSIVYSCEWPLYMWPFQKPNYTEIRQYCNHWRNFADIDDSWKSIKSILDWTSFNQERIVDVAGPGGWNDPDMLVIGNFGLSWNQQVTQMALWAIMAAPLFMSNDLRHISPQAKALLQDKDVIAINQDPLGKQGYQLRQGDNFEVWERPLSGLAWAVAMINRQEIGGPRSYTIAVASLGKGVACNPACFITQLLPVKRKLGFYEWTSRLRSHINPTGTVLLQLENTMQNSLKDLL | + (0.5 to 1.5 relative activity over Rd4BB (SEQ ID NO: 15)) | + (0.5 to 1.5 relative activity over Rd4BB (SEQ ID NO: 15)) | + (0.5 to 1.5 relative activity over Rd4BB (SEQ ID NO: 15)) |
| 507 (protein, Synthetic Polypeptide sequence of Variant No. 507 of mature Human GLA) LDNGLARTPTMGWLHWERFMCNLDCQEEPDSCISEKLFMEMAERMVSEGWKDAGYEYLCIDDCWMAPQRDSEGRLQADPQRFPHGIRQLANYVHSKGLKLGIYADVGNKTCAGFPGSFGYYDIDAQTFADWGVDLLKFDGCYCDSLENLADGYKHMSLALNRTGRSIVYSCEWPLYMWPFQKPNYTEIRQYCNHWRNFADIDDSWKSIKSILDWTSFNQERIVDVAGPGGWNDPDMLVIGNFGLSWNQQVTQMALWAIMAAPLFMSNDLRHISPQAKALLQDKDVIAINQDPLGKQGYQLRQGDNFEVWERPLSGLAWAVAMINRQEIGGPRSYTIAVASLGKGVACNPACFITQLLPVKRKLGFYEWTSRLRSHINPTGTVLLQLENTMQTSLKDLL | ++ (>1.5 to 2.5 relative activity over Rd4BB (SEQ ID NO: 15)) | + (0.5 to 1.5 relative activity over Rd4BB (SEQ ID NO: 15)) | + (0.5 to 1.5 relative activity over Rd4BB (SEQ ID NO: 15)) |
| 509 (protein, Synthetic Polypeptide sequence of Variant No. 509 of mature Human GLA) LDNGLARTPTMGWLHWERFMCNLDCQEEPDSCISEKLFMEMAERMVSEGWKDAGYEYLCIDDCWMAPQRDSEGRLQADPQRFPHGIRQLANYVHSKGLKLGIYADVGNKTCAGFPGSFGYYDIDAQTFADWGVDLLKFDGCYCDSLENLADGYKHMSLALNRTGRSIVYSCEWPLYMWPFQKPNYTEIRQYCNHWRNFADIDDSWKSIKSILDWTSFNQERIVDVAGPGGWNDPDMLVIGNFGLSWNQQVTQMALWAIMAAPLFMSNDLRHISPQAKALLQDKDVIAINQDPLGKQGYQLRQGDNFEVWERPLSGLAWAVAMINRQEIGGPRSYTIAVASLGKGVACNPACFITQLLPVKRKLGFYEWTSRLRSHINPTGTVLLTLENTMQMSLKDLL | + (0.5 to 1.5 relative activity over Rd4BB (SEQ ID NO: 15)) | + (0.5 to 1.5 relative activity over Rd4BB (SEQ ID NO: 15)) | + (0.5 to 1.5 relative activity over Rd4BB (SEQ ID NO: 15)) |
| 510 (protein, Synthetic Polypeptide sequence of Variant No. 510 of mature Human GLA) LDNGLARTPTMGWLHWERFMCNLDCQEEPDSCISEKLFMEMAERMVSEGWKDAGYEYLCIDDCWMAPQRDSEGRLQADPQRFPHGIRQLANYVHSKGLKLGIYADVGNKTCAGFPGSFGYYDIDAQTFADWGVDLLKFDGCYCDSLENLADGYKHMSLALNRTGRSIVYSCEWPLYMWPFQKPNYTEIRQYCNHWRNFGDIDDSWKSIKSILDWTSFNQERIVDVAGPGGWNDPDMLVIGNFGLSWNQQVTQMALWAIMAAPLFMSNDLRHISPQAKALLQDKDVIAINQDPLGKQGYQLRQGDNFEVWERPLSGLAWAVAMINRQEIGGPRSYTIAVASLGKGVACNPACFITQLLPVKRKLGFYEWTSRLRSHINPTGTVLLQLENTMQRSLKDLL | − (<0.5 relative activity over Rd4BB (SEQ ID NO: 15)) | + (0.5 to 1.5 relative activity over Rd4BB (SEQ ID NO: 15)) | + (0.5 to 1.5 relative activity over Rd4BB (SEQ ID NO: 15)) |
| 506 (protein, Synthetic Polypeptide sequence of Variant No. 506 of mature Human GLA) LDNGLARTPTMGWLHWERFMCNLDCQEEPDSCISEKLFMEMAERMVSEGWKDAGYEYLCIDDCWMAPQRDSEGRLQADPQRFPHGIRQLANYVHSKGLKLGIYADVGNKTCAGFPGSFGYYDIDAQTFADWGVDLLKFDGCYCDSLENLADGYKHMSLALNRTGRSIVYSCEWPLYMWPFQKPNYTEIRQYCNHWRNFADIDDSWKSIKSILDWTSFNQERIVDVAGPGGWNDPDMLVIGNFGLSWNQQVTQMALWAIMAAPLFMSNDLRHISPQAKALLQDKDVIAINQDPLGKQGYQLRQGDNFEVWERPLSGLAWAVAMINRQEIGGPRSYTIAVASLGKGVACNPACFITQLLPVKRKLGFYEWTSRLRSHINPTGTVLLWLENTMQMSLKDLL | + (0.5 to 1.5 relative activity over Rd4BB (SEQ ID NO: 15)) | + (0.5 to 1.5 relative activity over Rd4BB (SEQ ID NO: 15)) | − (<0.5 relative activity over Rd4BB (SEQ ID NO: 15)) |
| 508 (protein, Synthetic Polypeptide sequence of Variant No. 508 of mature Human GLA) LDNGLARTPTMGWLHWERFMCNLDCQEEPDSCISEKLFMEMAERMVSEGWKDAGYEYLCIDDCWMAPQRDSEGRLQADPQRFPHGIRQLANYVHSKGLKLGIYADVGNKTCAGFPGSFGYYDIDAQTFADWGVDLLKFDGCYCDSLENLADGYKHMSLALNRTGRSIVYSCEWPLYMWPFQKPNYTEIRQYCNHWRNFADIDDSWKSIKSILDWTSFNQERIVDVAGPGGWNDPDMLVIGNFGLSWNQQVTQMALWAIMAAPLFMSNDLRHISPQAKALLQDKDVIAINQDPLGKQGYQLRQGDNFEVWERPLSGLAWAVAMINRQEIGGPRSYTIAVASLGKGVACNPACFITQLLPVKRKLGFYEWTSRLRSHINPTGTVLAQLENTMQMSLKDLL | − (<0.5 relative activity over Rd4BB (SEQ ID NO: 15)) | − (<0.5 relative activity over Rd4BB (SEQ ID NO: 15)) | − (<0.5 relative activity over Rd4BB (SEQ ID NO: 15)) |
| 372 (protein, Synthetic Polypeptide sequence of Variant No. 372 of mature Human GLA) LDNGLARTPTMGWLHWERFMCNLDCQEEPDSCISEKLFMEMAEVMVSEGWKDAGYEYLCIDDCWMAPQRDSEGRLQADPQRFPHGIRQLANYVHSKGLKLGIYADVGNKTCAGFPGSFGYYDIDAQTFADWGVDLLKFDGCYCDSLENLADGYKHMSLALNRTGRSIVYSCEWPLYMWPFQKPNYTEIRQYCNHWRNFADIDDSWKSIKSILDWTSRNQERIVDVAGPGGWNDPDMLVIGNFGLSWDQQVTQMALWAIMAAPLFMSNDLRHISPQAKALLQDKDVIAINQDPLGKQGYQLRKGDNFEVWERPLSGDAWAVAIINRQEIGGPRSYTIPVASLGKGVACNPACFITQLLPVKRQLGFYNWTSRLKSHINPTGTVLLQLENTMQMSLKDLL | − (<0.5 relative activity over Rd4BB (SEQ ID NO: 15)) | + (0.5 to 1.5 relative activity over Rd4BB (SEQ ID NO: 15)) | + (0.5 to 1.5 relative activity over Rd4BB (SEQ ID NO: 15)) |
